B1: ssDNA 15 (ssDNA)
DNA: ATCCGCCTGATTAGCGATACTACCGCTGTGTAGTTCCTTTAGGACTAGAGGGCCGCCTACACTTGAGCAAAATCACCTGCAGGGG
B2: ssDNA 23 (ssDNA)
DNA: ATCCGCCTGATTAGCGATACTGGGCATCTAACCCAGACCTACCGGAACGTTATCGCTTGTGACTTGAGCAAAATCACCTGCAGGGG
B3: ssDNA b65 (ssDNA)
DNA: CTACCTACGATCTGACTAGCCGAGGTCCCCCACTGGATAGAGTTGTTGAAACAACGGTGCGCTTAGCTTACTCTCATGTAGTTCCT
B4: ssDNA 10 (ssDNA)
DNA: ATCCGCCTGATTAGCGATACTGTACCATCCACGGTTTACGTGGACAAGAGGGCCCTGGTACACTTGAGCAAAATCACCTGCAGGGG
B5: ssDNA b56 (ssDNA)
DNA: CTACCTACGATCTGACTAGCGCAGGGCCACGTCTATTTAGACTAGAGTGCAGTGGTTCGCTTACTCTCATGTAGTTCCT
B6: ssDNA b79 (ssDNA)
DNA: CTACCTACGATCTGACTAGCGAGGCATTAGGTCCGAATGGTAGTAATGCTGTCGTGCCTTGCTTAGCTTACTCTCATGTAGTTCCT
B7: ssDNA 33 (ssDNA)
DNA: ATCCGCCTGATTAGCGATACTTCAAGCACTCCCGTCTTCCAGACAAGAGTGCAGGGCCTCTACTTGAGCAAAATCACCTGCAGGGG
B8: ssDNA b66 (ssDNA)
DNA: CTACCTACGATCTGACTAGCAACACTTCCCCACTGGATAGAGGCCTTTCGCAGAGCCGGTGCTTAGCTTACTCTCATGTAGTTCCT
B9: ssDNA b95 (ssDNA)
DNA: CTACCTACGATCTGACTAGCCCACTGCATAGAGAACTGGATCGACGGTCCAAAGTTCGGTGCTTAGCTTACTCTCATGTAGTTCCT
B10: ssDNA b53 (ssDNA)
DNA: CTACCTACGATCTGACTAGCGCAAGGGCATCTCGGAATCGGTTAATCTGACTTGCAATACGCTTAGCTTACTCTCATGTAGTTCCT
B11: ssDNA 6 (ssDNA)
DNA: ATCCGCCTGATTAGCGATACTATACACCCGGCGGGCCTACCGGATCGTTGATTTCTCTCCACTTGAGCAAAATCACCTGCAGGGG

For orientation: Kd means the concentration at which binding is half-saturated.

For this data set, the target named is VEGF165 (recombinant human vascular endothelial growth factor, 165 aa form) (Homo sapiens, UniProt P15692-4 P15692-4:27-191). As to the kind of experiment: filter. The settings on record: tags: gift from N. Ferrara, Genentech; chain copies: 2 (dimer, stated).
Chain of VEGF165 (recombinant human vascular endothelial growth factor, 165 aa form) (P15692 other isoform, or with tags, fused parts or gaps): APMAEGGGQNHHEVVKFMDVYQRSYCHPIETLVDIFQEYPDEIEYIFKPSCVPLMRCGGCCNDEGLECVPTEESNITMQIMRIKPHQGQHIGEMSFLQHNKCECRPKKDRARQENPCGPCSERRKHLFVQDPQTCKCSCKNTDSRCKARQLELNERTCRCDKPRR
Turning to B1, the dissociation constant Kd was 0.88 nM. In the case of B2, the Kd is 0.75 nM. Take GGAGGTGCGTTGTCCGAAGGGGTCGTTAGTCACCTC (ssDNA) [85t]: the Kd was determined as 0.3 nM. In the case of AACACTTCCCCACTGGATAGAGGCCTTTCGCAGAGCCGGTGCTTA (ssDNA) [66t], the Kd turned out to be 0.35 nM.

Regarding AGGGCCACGTCTATTTAGACTAGAGTGCAGTGGTTC (ssDNA) [56t], the Kd was determined as 0.2 nM. On to B3, for which the Kd came out at 0.53 nM.

Consider B4, for which the Kd was determined as 1 nM. To B5 belongs 0.5 nM; to B6, 2 nM. To B7 belongs 2 nM. With CGAGGTCCCCCACTGGATAGAGTTGTTGAAACAACGGTGCGCTTA (ssDNA) [65t] the figure was 0.32 nM; with B8, 1.3 nM. On to GTAGTTCCTTTAGGACTAGAGGGCCGCCTAC (ssDNA) [15t], for which the Kd turned out to be 3 nM. Consider B9, for which the Kd stood at 0.9 nM. In the case of B10, the Kd was found to be 2.5 nM. B11: the Kd was 1 nM. With GTACCATCCACGGTTTACGTGGACAAGAGGGCCCTGGTAC (ssDNA) [10t] the figure was 5 nM.

The values are drawn from patent US5811533, “High-affinity oligonucleotide ligands to vascular endothelial growth factor (VEGF)” (NeXstar Pharmaceuticals, Inc.).
